Test results: the supplement of paper PMC10567573
± gives the standard deviation.

Assay: protein stability index of a GFP-peptide fusion (GPS, HEK-293T) (PSI 1-6); higher = more stable
[1] = treatment: DMSO, c terminus: a fixed tail appended
[2] = treatment: MLN4924 1 uM, 8 h, c terminus: a fixed tail appended
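Note: 24-mer peptide tiles fused after GFP, lentivirally expressed, FACS-sorted into six equal bins by GFP/DsRed ratio, decoded by Illumina sequencing, PSI is the read-weighted mean bin number.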

| Sequence | protein stability index [1] | protein stability index [2] | protein stability index (treatment: DMSO, c terminus: native) | protein stability index (treatment: MLN4924 1 uM, 8 h, c terminus: native) |
| --- | --- | --- | --- | --- |
| TELLAERFYYQALSVAPQIGMPFN [SMG5] | 2.21 ± 0.34 | 2.16 ± 0.17 | – | – |
| TWWRVRNAANRTGYVPSNYVERKN [NCK2] | 2.86 ± 0.14 | 3.06 ± 0.27 | – | – |
| PLYLLTWKIAPAMAAGNTVIAKPS [ALDH8A1] | 2.04 ± 0.52 | 2.11 ± 0.4 | – | – |
| MPEERASKYENYFSASERLSLKRE [HESX1] | 4.41 ± 0.51 | 4.75 ± 0.31 | – | – |
| SQTEAHYSCQSKEILRYMKEFTLL [P2RY14] | 2.21 ± 0.15 | 2.3 ± 0.23 | – | – |
| HVHCFTCAACKTPIRNRAFYMEEG [PDLIM7] | 2.24 ± 0.11 | 2.47 ± 0.23 | – | – |
| PKGWRQLAQEAEAWLNYPCFKNWD [OAS1] | 2.72 ± 0.23 | 2.82 ± 0.18 | – | – |
| AEGIGSTVFRAILDYYKTGIIRCP [BTBD10] | 2.12 ± 0.42 | 1.99 ± 0.2 | – | – |
| GFCFFNSVAVAARHAQTISGHALR [HDAC6] | 2.25 ± 0.43 | 1.76 ± 0.28 | – | – |
| RFRSCNTEDCPTGSALTFREEQCA [ADAMTS4] | 3.75 ± 0.3 | 4.24 ± 0.27 | – | – |
| EHGATLAVIDSEKDMNFLKRYAGR [CD69] | 3.84 ± 0.34 | 3.95 ± 0.27 | – | – |
| QMLLNVEANSAKVQEDLEAEFQSL [FSD1] | 4.92 ± 0.21 | 4.96 ± 0.2 | – | – |
| QLSTPHAVGVLLLGLVGYYIFRVA [DHCR7] | 2.91 ± 0.44 | 2.94 ± 0.35 | – | – |
| DKDDEEKPKIEDVGSDEEDDSGKD [HSP90AB1] | 5.57 ± 0.34 | 5.54 ± 0.062 | – | – |
| CGRYINGHMLQHHGNSGHPLVLSY [HDAC6] | 2.51 ± 0.29 | 2.65 ± 0.77 | – | – |
| LASRNPCPWHYLHLSGSHNTLAPT [RSPH3] | 2.41 ± 0.14 | 2.45 ± 0.16 | – | – |
| AEFQLVRDVVLCSLLNFLPEGVNK [TENT5C] | 2.37 ± 0.7 | 3.07 ± 0.85 | – | – |
| QPPEESQPPQSQAQVPPAAPHHHH [PLK2] | 5.41 ± 0.11 | 5.43 ± 0.18 | – | – |
| MEGDGGTPWALALLRTFDAGEFTG [RIPK4] | 2.11 ± 0.16 | – | – | – |
| ATSATSHTRSLNSIIHQMEKFSSS [FBF1] | 3.34 ± 0.28 | 3.59 ± 0.39 | – | – |
| YYSDKYDDEEFEYRHVMLPKDIAK [CKS1B] | 3.81 ± 0.12 | 3.91 ± 0.14 | – | – |
| QGPQGREGLAFLVSCPEGRADCAS [PWWP2B] | 3.77 ± 0.33 | 3.95 ± 0.26 | – | – |

| Sequence | protein stability index [1] | protein stability index [2] | protein stability index (treatment: DMSO, c terminus: native) | protein stability index (treatment: MLN4924 1 uM, 8 h, c terminus: native) |
| --- | --- | --- | --- | --- |
| AMALTSSMNWGINLLISLTFLTVT [SLC2A12] | 3.14 ± 0.36 | 3.32 ± 0.33 | – | – |
| FQSISLRKIQFNFPYFRSDRDKRD [CLCN6] | 2.3 ± 0.34 | 2.75 ± 0.52 | – | – |
| LEENPYDLDAWSILIREAQNQPID [CSTF3] | 3.74 ± 0.32 | 3.85 ± 0.31 | – | – |
| TPVILVGCQLDLRYADLEAVNRAR [RHOBTB1] | 2.46 ± 0.09 | 2.34 ± 0.39 | – | – |
| ASSQHSEGSRSSGSNRSGSDRRKE [DVL3] | 5.37 ± 0.16 | 5.52 ± 0.16 | – | – |
| SEIIQITTGSKELDKLLQGGIETG [RAD51] | 4.11 ± 0.34 | 4.3 ± 0.26 | – | – |
| PWDESGSGCLPPEPLFEAGDATLA [FOXJ1] | 5.07 ± 0.39 | 5.08 ± 0.23 | – | – |
| EELLWRKVYYEVIQLIKTNKKHIH [SMG5] | 2.8 ± 0.59 | 2.4 ± 0.39 | – | – |
| HSRRHESYSRGYSYHDGYGEALGR [RBMY1A1] | 3.14 ± 0.3 | 3.24 ± 0.36 | – | – |
| PLSAVYRICLGKFTFPGMSLDKRQ [TPRG1] | 2.23 ± 0.46 | 2.24 ± 0.22 | – | – |
| ILVVTVQLILFGLSNQLAVTFREE [MCOLN1] | 3.02 ± 0.39 | 3.05 ± 0.23 | – | – |
| ELQQELSLKDQERVAEVSRVRVEL [LRRC45] | 3.5 ± 0.17 | 3.78 ± 0.24 | – | – |
| VNLQHLDLLNNKLVTLPVSFAQLK [LRRC59] | 2.12 ± 0.23 | 2.31 ± 0.3 | – | – |
| VMYTIHMGCHGFRDPFECNMCGYH [IKZF1] | 2 ± 0.45 | 2.4 ± 1.3 | – | – |
| GKPPTAHLDRTSVSSLSEVEEVDM [ELOA2] | 5.51 ± 0.11 | 5.41 ± 0.29 | – | – |
| SIQMNVAEVSWEPGRREGCDICAG [RPS21] | 2.7 ± 0.92 | 3.35 ± 1.3 | – | – |
| DIVEFVCKSGYHPTKSHSFRAMCQ [CFHR2] | 2.49 ± 0.7 | 2.09 ± 0.18 | – | – |
| ADSGNFKRCINLWKYALDMQQSNL [FEM1C] | 2.15 ± 0.37 | 2.21 ± 0.37 | – | – |
| IMSRVNAYQQGVGYQMLGNVVTIG [PHTF1] | 2.21 ± 0.48 | 2.31 ± 0.34 | – | – |
| KGNTALHDCAESGSLDIMKMLLMY [FEM1C] | 1.97 ± 0.22 | 1.96 ± 0.34 | – | – |
| PYDLHLRSQSLTMQDELNAVFHN [NEUROD6] | – | – | 3.44 ± 0.22 | 3.71 ± 0.15 |
| MIAFFFIIIYLGPMVLMIIVMCVQ [CDS2] | 3.3 ± 0.31 | 3.12 ± 0.93 | – | – |

| Sequence | protein stability index [1] | protein stability index [2] | protein stability index (treatment: DMSO, c terminus: native) | protein stability index (treatment: MLN4924 1 uM, 8 h, c terminus: native) |
| --- | --- | --- | --- | --- |
| LKPEKSYSFVLTNRGNSAGGLQHR [PTPRD] | 3.08 ± 0.53 | 3.27 ± 0.23 | – | – |
| QAIFHAVDQYLALPDVSLGRYAYV [MCOLN1] | 3.16 ± 0.59 | 2.68 ± 0.31 | – | – |
| FKAVLDGLDVLLAQEVRPRRWKLQ [PRAME] | 2.25 ± 0.19 | 2.41 ± 0.35 | – | – |
| RAQEREQIKALNNKFASFIDKVRF [KRT71] | 2.1 ± 0.11 | 2.2 ± 0.3 | – | – |
| TGSKEKGLTKKRTKVQKKSLLLKK [NOP53] | 4.48 ± 0.24 | 4.72 ± 0.22 | – | – |
| MEPGGARLRLQRTGGLGGERERQP [SOAT2] | 4.58 ± 0.12 | 4.65 ± 0.21 | – | – |
| ITDNFCYFRHADPTWQNSIRHNLS [FOXJ1] | 2.32 ± 0.13 | 2.43 ± 0.17 | – | – |
| RSLNEEHSKQYRCLSFQPECSMKL [VDR] | 3.25 ± 0.26 | 3.41 ± 0.31 | – | – |
| AETAGAIMAFFLCLGLALGAVFSF [SLC29A1] | 3.35 ± 0.66 | 3.03 ± 0.24 | – | – |
| KRAPGEETEKEEEEEDREEEDENG [NEUROD6] | 5.6 ± 0.34 | 5.69 ± 0.43 | – | – |
| IVANTMPTHLSNGQMSTPETPQPS [HNF4A] | 4.43 ± 0.22 | 4.51 ± 0.15 | – | – |
| FSRAGISEAQLTDAETSKLIYDFI [WAS] | 2.57 ± 0.2 | 2.95 ± 0.29 | – | – |
| NWGQDPGVSANASKAWHQKSHFQN [PBXIP1] | 2.94 ± 0.5 | 3.43 ± 0.32 | – | – |
| VDDLSVEWDAMGGKVQDIKAREKD [FSD1] | 5.41 ± 0.33 | 5.5 ± 0.43 | – | – |
| RVRPTFQEITSETEDLCEKPDDEV [RIPK4] | 5.57 ± 0.17 | 5.49 ± 0.56 | – | – |
| EGSFNGSEKETMQFLNDRLASYLE [KRT33B] | 3.43 ± 0.14 | 3.34 ± 0.21 | – | – |
| SFTQGEGARPLSTRVPRAAIVFTD [MATN2] | 3.5 ± 0.38 | 3.55 ± 0.12 | – | – |
| REISETEAKALLKERQKKDNHNLI [TFE3] | 5 ± 0.23 | 5.1 ± 0.16 | – | – |
| QDIAQEISEAFSQRVGFGDDFDED [CHMP4C] | 5.62 ± 0.21 | 5.5 ± 0.18 | – | – |
| RWREGTKDSHDPLPSWAELLRPKY [PBXIP1] | 2.5 ± 0.21 | 2.96 ± 0.3 | – | – |
| GEKPYECQDCGRAFNQNSSLGRHK [ZNF8] | 3.19 ± 0.47 | 3.69 ± 0.23 | – | – |
